Assay results published in publication PMC3205248.

Biological target: His6-DIP1-c (Disconnected Interacting Protein 1, longest isoform) (Drosophila melanogaster)
Experiment: AUC

## His6-DIP1-c (Disconnected Interacting Protein 1, longest isoform) (natural protein)
  stoichiometry N: 2
